# Measurements as given in US20150337049A1 (Genmab, published 2015).
# How the values were obtained:
# [1] = target: T1, C1q (from 3% pooled human serum) (human, UniProt P02745 23-245; P02746 28-253; P02747 29-245); test: ELISA, antibody coated, 3% pooled human serum, anti-C1q detection
# T1 construct: Native C1q of pooled human serum, detected with rabbit anti-human C1q
# Procedure: Plates were washed and blocked with PBS supplemented with 0.025% Tween 20 and 0.1% gelatine. […] Detection was performed by addition of 1 mg/mL 2,2′-azino-bis(3-ethylbenzothiazoline-6-sulfonic acid) (ABTS; Roche, Mannheim, Germany) for about 30 min. The reaction was stopped by the addition of 100 μL 2% oxalic acid. Absorbance was measured at 405 nm in a microplate reader (Biotek, Winooski, Vt.). Log transformed data were analyzed by fitting sigmoidal dose-response curves with variable slope using GraphPad Prism software.
# [2] = target: T2, HER2 on HER2-positive AU565 cells (human, UniProt P04626 23-1255); test: FACS, AU565 cells
# T2 construct: whole, on cells
# Procedure: Cells (1×10^5 cells/well) were incubated in polystyrene 96-well round-bottom plates (Greiner bio-one 650101) with serial dilutions of antibody preparations (range 2 to 10000 ng/mL in 4-fold dilutions for Jurkat cells and range 1 to 3000 ng/mL in 4-fold dilutions for on AU565 cells) in 100 μL PBS/0.1% BSA/0.02% azide at 4° C. for 30 min.
# After washing twice in PBS/0.1% BSA/0.02% azide, cells were incubated in 100 μL with secondary antibody at 4° C. for 30 min. As a secondary antibody, R-Phycoerythrin (PE)-conjugated goat-anti-human IgG F(ab′)₂ (109-116-098, Jackson ImmunoResearch Laboratories, Inc., West Grove, Pa.) diluted 1/100 in PBS/0.1% BSA/0.02% azide, was used for all experiments. Next, cells were washed twice in PBS/0.1% BSA/0.02% azide, resuspended in 150 μL PBS/0.1% BSA/0.02% azide and analyzed on a FACS CantoII (BD Biosciences). Binding curves were analyzed using non-linear regression (sigmoidal dose-response with variable slope) using GraphPad Prism V5.04 software (GraphPad Software, San Diego, Calif., USA).
binder,measurement,setting,value
bsIgG1-CD3×HER2-… (IgG1-huCLB-T3/4×HER2-169 with L234F/L235E/D265A/N297Q/P331S) (bispecific antibody) heavy 1: EVQLVESGGGLVKPGGSLRLSCAASGFTFSSYGMFWVRQAPGKGLEWVATISRYSRYIYYPDSVKGRFTISRDNAKNSLYLQMNSLRAEDTAVYYCARRPLYGSSPDYWGQGTLVTVSSASTKGPSVFPLAPSSKSTSGGTAALGCLVKDYFPEPVTVSWNSGALTSGVHTFPAVLQSSGLYSLSSVVTVPSSSLGTQTYICNVNHKPSNTKVDKRVEPKSCDKTHTCPPCPAPEFEGGPSVFLFPPKPKDTLMISRTPEVTCVVVAVSHEDPEVKFNWYVDGVEVHNAKTKPREEQYQSTYRVVSVLTVLHQDWLNGKEYKCKVSNKALPASIEKTISKAKGQPREPQVYTLPPSREEMTKNQVSLTCLVKGFYPSDIAVEWESNGQPENNYKTTPPVLDSDGSFLLYSKLTVDKSRWQQGNVFSCSVMHEALHNHYTQKSLSLSPGK VL 1: EIVLTQSPATLSLSPGERATLSCSASSSVTYVHWYQQKPGQAPRLLIYDTSKLASGIPARFSGSGSGTDFTLTISSLEPEDFAVYYCFQGSGYPLTFGSGTKLEMR heavy 2: QVQLVQSGAEVKKPGASVKVSCKASGYTFTNYGISWVRQAPGQGLEWMGWLSAYSGNTIYAQKLQGRVTMTTDTSTTTAYMELRSLRSDDTAVYYCARDRIVVRPDYFDYWGQGTLVTVSSASTKGPSVFPLAPSSKSTSGGTAALGCLVKDYFPEPVTVSWNSGALTSGVHTFPAVLQSSGLYSLSSVVTVPSSSLGTQTYICNVNHKPSNTKVDKRVEPKSCDKTHTCPPCPAPEFEGGPSVFLFPPKPKDTLMISRTPEVTCVVVAVSHEDPEVKFNWYVDGVEVHNAKTKPREEQYQSTYRVVSVLTVLHQDWLNGKEYKCKVSNKALPASIEKTISKAKGQPREPQVYTLPPSREEMTKNQVSLTCLVKGFYPSDIAVEWESNGQPENNYKTTPPVLDSDGSFFLYSRLTVDKSRWQQGNVFSCSVMHEALHNHYTQKSLSLSPGK VL 2: EIVLTQSPATLSLSPGERATLSCRASQSVSSYLAWYQQKPGQAPRLLIYDASNRATGIPARFSGSGSGTDFTLTISSLEPEDFAVYYCQQRSNWPRTFGQGTKVEIK,binding result,[1],no binding (tested: coated at 7-30000 ng/mL)
same,binding result,[2],binds
